In this data set the test system is MS2 coat protein. Description: apparent KD of MS2 coat protein; higher = weaker reporter binding. Particulars: Eterna round: R107. The method in brief: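 Values are apparent KD, taken as the median for each design of fits to normalised binding curves from individual clusters. The designed RNA switches were transcribed on-chip from Illumina sequencing clusters and exposed to SNAP-549-labelled MS2 coat protein at twofold increasing amounts from 0.7 or 1.5 nM to 3 µM. Titration used 100 mM Tris-HCl pH 7.5, 80 mM KCl and 4 mM MgCl2, without or with constant ligand.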

Setting [1] is: input ligand: theophylline 20 uM.
The mark [2] stands for this setting: input ligand: theophylline 2 mM.
[3] abbreviates: input ligand: tryptophan 2.4 mM.

17 sequences from the supplement of paper PMC9170038 can be followed below.

With “AGGUGCUGAUCGGCCGCCACUGAGAGGACGUGAACUUUAGCUGGUUACAUGAGGAUCACCCAUGUCAGGACCGGGAUUAGUUUGC [Quleorla]”, the “apparent KD of MS2 coat protein” value by setting is: (input ligand: arginine 13.2 mM) 11.3 nM; under setting [1], 17.4 nM; under setting [2], 10.7 nM.
For the sequence “AGUAAUCUAAGAGAUACCAGACGGUAUAUAACAUGAGGAUCACCCAUGUUUUGGGUGUACGUCCCUUGGCAGCUCAAAAUGAUAA [#06 Same State - Theophylline B]”, the “apparent KD of MS2 coat protein” value was 123 nM (input ligand: arginine 13.2 mM), 202 nM under setting [1] and 382 nM under setting [3].
As for “AGUCUUAGUGGAAGGAGCGCAGUCAUAACAUGAGGAUCACCCAUGUCGAGGUGAGGGUCAUUGCAGGUAGGUCGCCAUAAUAGGA [#16 Same State - Arginine B]”, the “apparent KD of MS2 coat protein” value by setting is: (input ligand: arginine 13.2 mM) 19.3 nM; (input ligand: none) 156 nM; under setting [1], 355 nM; under setting [2], 322 nM; under setting [3], 369 nM.
On the same counts, the results for “AGUCUUGUGGGAAGGAGCGCAUACUUCACAUGAGGAUCACCCAUGUCAAGACGUGAGUCAGUGCAGGUAGGUCGCCUAACUAAGA [Same State - Arginine B (Freestyle 15)]” are 53.1 nM, 30.3 nM, 37.4 nM, 35.8 nM and 28.2 nM.
Regarding “AGUUGACAAAAGUCAGCAACAUGAUCCGAAGGAGCGGGCGAAAGCCCAGGUAGGUCGCGGACAUGAGGAUCACCCAUGUCUCCUU [ArgAX 3 #OpenEnded #Sliding]”, the “apparent KD of MS2 coat protein” value by setting is: (input ligand: arginine 13.2 mM) 46.6 nM; (input ligand: none) 74.3 nM; under setting [1], 70.6 nM; under setting [2], 100 nM; under setting [3], 63.9 nM.
With “AUAAAUAUAACCGAUACCAGCCUUAUACAUGAGGAUCACCCAUGUUAUGCUUCCUUUUUUGGCCCUUGGCAGCGGAAAUGGGUAA [AstrosSSTheB#2]”, the “apparent KD of MS2 coat protein” value reads like this: (input ligand: arginine 13.2 mM) 47.6 nM; under setting [1], 65.8 nM; under setting [3], 65.3 nM.
On the same counts, the results for “AUAACACAUGAGGAUCACCCAUGUAAGGAUACCAGUUUCUGAUUAAACCCUUGGCAGCCUAGAGAUAGUCAUGUAAUAACGGCGA [theeternabot_sameState_MS2_Theo_A_19]” are 12.4 nM, 18.1 nM and 12.2 nM.
Consider “AUAACAUGAGGAUCACCCAUGUAAGCUGAAGGAGCGCUGGAAACAGCAGGUAGGUCGCAGCGGCGACCUUCAUGGGUAAGGUCGC [(M1)-(M2)-(Arg1)-(Arg2)-(A)'-(M)'-(A)''_Design4]”, for which the “apparent KD of MS2 coat protein” value reads like this: (input ligand: arginine 13.2 mM) 33.1 nM; (input ligand: none) 32.8 nM; under setting [1], 41.2 nM; under setting [2], 40.5 nM; under setting [3], 30.4 nM.
For the sequence “AUAACAUGAGGAUCACCCAUGUAAGGUGAUACCAGACGAAGUAAAGUCCCUUGGCAGCACAAGUAAAGUUACGAAUAUUGAUAGA [JR_SSTheophyA_Sub004]”, the “apparent KD of MS2 coat protein” value (input ligand: arginine 13.2 mM) was 62.2 nM, the “apparent KD of MS2 coat protein” value under setting [1] was 416 nM and the “apparent KD of MS2 coat protein” value under setting [3] came out at 634 nM.
On to “AUAACUGUAAUAAACCGCAGGCUAGUGGAAGGAGCGCGGAAUAACGCAGGUAGGUCGCCACAAACAUGAGGAUCACCCAUGUGGC [SSAA NP+V+V2 #6]”, for which the “apparent KD of MS2 coat protein” value is, setting by setting: (input ligand: arginine 13.2 mM) 16 nM; (input ligand: none) 16 nM; under setting [1], 21.6 nM; under setting [2], 20.7 nM; under setting [3], 19.6 nM.
Consider “AUAAGUAAUGUCUCGUGUAUUAUUACAGAUACCAGACUAUCCUAUGUCCCUUGGCAGCUGGAUUACAUGAGGAUCACCCAUGUGG [#11 Exclusion-TheophyllineA]”, for which the “apparent KD of MS2 coat protein” value came to 37.6 nM (input ligand: arginine 13.2 mM), 49.5 nM under setting [1] and 42 nM under setting [3].
On the same counts, the results for “AUAAGUAAUGUUACGUGUUUUAUUACAGAUACCAGACUAUACGUUGUCCCUUGGCAGCUGAAUUACAUGAGGAUCACCCAUGUUG [JR_ExcTheophyA_Sub004]” are 15.9 nM, 18.4 nM and 15.1 nM.
For “AUAUAUACAUGAGGAUCACCCAUGUUAUUUCGAGGACCGGUACGGCCGCCACUCGAUAGAGUAGAAGUAUUUUGGGAUAGUUGAU [JR_SSTryptoA_Sub015]”, the “apparent KD of MS2 coat protein” value turned out to be 19.7 nM (input ligand: arginine 13.2 mM); 18.5 nM (input ligand: none); 30.7 nM under setting [1]; 23.6 nM under setting [2]; 15.6 nM under setting [3].
On the same counts, the results for “AUAUAUGACAGAAGGAGCGCCAUGAACACACAUGAGGAUCACCCAUGUUUUUUUUGUGUUUGGCAGGUAGGUCGCUGACAUGAAA [Same State Arginine B 3]” are 9.45 nM, 8.71 nM, 17.7 nM, 11.6 nM and 9.98 nM.
In the case of “AUAUGAUCAUAGGAUACCAGAAAUGGUAUUCCUUUAUUUCUUACAUGAGGAUCACCCAUGUUCCCUUGGCAGCUUAUGAUCAUAU [ETHB #4]”, the “apparent KD of MS2 coat protein” value was found to be 79.3 nM (input ligand: arginine 13.2 mM), 169 nM under setting [1] and 107 nM under setting [3].
Regarding “AUCAGUAGAACUGAUACCAGUCAAAGGCUUUGACCUCAUAACAUGAGGAUCACCCAUGUUGACCCUUGGCAGCAGUAGGCAAGGG [Theo B Ex t4]”, the “apparent KD of MS2 coat protein” value is, setting by setting: (input ligand: arginine 13.2 mM) 22.5 nM; under setting [1], 28.9 nM; under setting [3], 25.4 nM.
With “AUCAUGGCCAUCGAUACCAGCUACAUGAGGAUCACCCAUGUAAACGGCGCGGUGAGAUGUAGCCCUUGGCAGCGAAGGGUCAAGG [Beonrexe]”, the “apparent KD of MS2 coat protein” value runs as follows: (input ligand: arginine 13.2 mM) 16.4 nM; (input ligand: none) 16.8 nM; under setting [1], 49.2 nM; under setting [2], 64 nM; under setting [3], 19.6 nM.
